Experimental data taken from US20230220589A1.

B1: engineered M44-L binder (SEQ ID NO: 31) (designed binder, not shown: small tags and cut ends; large carriers)
chain: QDSTQNLIPAPPLISVPLQPGFWTERFQGRWFLVGFAGNAVQKERQSRLTMQSLILELQEDNSYNITAINVRGQGCRYIISTLVPSSRPGQFTLGNIHSYPQIQSLDVQVADTDYDQFAMVFLQGTSENKQYFEVALAGRTKGLSDELKERFVSFAKSLGLKDNNIVFSVPTDQCIDN
B2: engineered M44-L binder (SEQ ID NO: 21) (designed binder, not shown: small tags and cut ends; large carriers)
chain: QVSVQPNFQQDKFLGRWFYAGHASNSSWYREKVAALSMAKLVVAPATDGGLNATETFLRKNQCETITSLLQPAGSLGSYSSRSPHGGSTWSTSVVETDYDQYALLYLQGSKGPGEDFRGAILASRTQTPRAELKEKFTAFSKAQGFTEDTIVFLPQTDKCMTEQ
B3: engineered M44-A binder (SEQ ID NO: 42) (designed binder, not shown: small tags and cut ends; large carriers)
chain: QVSVQPNFQQDKFLGRWFVAGLASNSSWDREKVAALSGAKMVVAPATDGGLNVTRTMLRKNQCETYTGLLQPAGSLGSYSWRSPHPGSTGSESVVETDYDQYALVYGQGSKGPGEDLRAAALWSRTQTPRAELKEKFTAFSKAQGFTEDTIVFLPQTDKCMTEQ

Target: M44-modified S NTAA target peptides
Test: encoding assay; P2 W

encoding yield	Binder
0.07	B1
0.02	B2
0.13	B3

Target: M44-modified Q NTAA target peptides
Test: encoding assay; P2 W

encoding yield	Binder
0.03	B1
0.01	B2
0.03	B3

Target: M44-modified H NTAA target peptides
Test: encoding assay; P2 W

encoding yield	Binder
0.04	B1
0.01	B2
0.04	B3

Target: M44-modified M NTAA target peptides
Test: encoding assay; P2 W

encoding yield	Binder
0.05	B1
0.01	B2
0.03	B3

Target: M44-modified P NTAA target peptides
Test: encoding assay; P2 W

encoding yield	Binder
0.02	B1
0.01	B2
0.04	B3

Target: M44-modified A NTAA target peptides (M44-A-P2-peptide)
Test: encoding assay; P2 W

encoding yield	Binder
0.05	B1
0.01	B2
0.28	B3

Target: M44-modified F NTAA target peptides (M44-F-P2-peptide)
Test: encoding assay; P2 W

encoding yield	Binder
0.27	B1
0.09	B2
0.18	B3

Target: M44-modified M NTAA target peptides
Test: encoding assay; P2 A

encoding yield	Binder
0.05	B1
0.06	B2
0.03	B3

Target: M44-modified I NTAA target peptides (M44-I-P2-peptide)
Test: encoding assay; P2 A

encoding yield	Binder
0.07	B1
0.29	B2
0.05	B3

Target: M44-modified W NTAA target peptides
Test: encoding assay; P2 A

encoding yield	Binder
0.08	B1
0.01	B2
0.03	B3

Target: M44-modified T NTAA target peptides
Test: encoding assay; P2 V

encoding yield	Binder
0.03	B1
0.01	B2
0.12	B3

Target: M44-modified L NTAA target peptides (M44-L-P2-peptide)
Test: encoding assay; P2 V

encoding yield	Binder
0.18	B1
0.09	B2
0.04	B3

Target: M44-modified S NTAA target peptides
Test: encoding assay; P2 V

encoding yield	Binder
0.04	B1
0.01	B2
0.05	B3

Target: M44-modified Y NTAA target peptides (M44-Y-P2-peptide)
Test: encoding assay; P2 V

encoding yield	Binder
0.07	B1
0.02	B2
0.06	B3

Target: M44-modified Q NTAA target peptides
Test: encoding assay; P2 V

encoding yield	Binder
0.02	B1
0.01	B2
0.04	B3

Target: M44-modified H NTAA target peptides
Test: encoding assay; P2 V

encoding yield	Binder
0.04	B1
0.01	B2
0.05	B3

Target: M44-modified M NTAA target peptides
Test: encoding assay; P2 V

encoding yield	Binder
0.05	B1
0.08	B2
0.04	B3

Target: M44-modified P NTAA target peptides
Test: encoding assay; P2 V

encoding yield	Binder
0.02	B1
0.01	B2
0.04	B3

Target: M44-modified A NTAA target peptides (M44-A-P2-peptide)
Test: encoding assay; P2 V

encoding yield	Binder
0.04	B1
0.01	B2
0.17	B3

Target: M44-modified I NTAA target peptides (M44-I-P2-peptide)
Test: encoding assay; P2 V

encoding yield	Binder
0.09	B1
0.09	B2
0.05	B3

Target: M44-modified W NTAA target peptides
Test: encoding assay; P2 V

encoding yield	Binder
0.1	B1
0.02	B2
0.06	B3

Target: M44-modified D NTAA target peptides
Test: encoding assay; P2 V

encoding yield	Binder
0.03	B1
0.01	B2
0.03	B3

Target: M44-modified N NTAA target peptides
Test: encoding assay; P2 V

encoding yield	Binder
0.05	B1
0.01	B2
0.04	B3

Target: M44-modified F NTAA target peptides (M44-F-P2-peptide)
Test: encoding assay; P2 V

encoding yield	Binder
0.19	B1
0.04	B2
0.09	B3

Target: M44-modified T NTAA target peptides
Test: encoding assay; P2 F

encoding yield	Binder
0.04	B1
0.02	B2
0.25	B3

Target: M44-modified L NTAA target peptides (M44-L-P2-peptide)
Test: encoding assay; P2 F

encoding yield	Binder
0.13	B1
0.06	B2
0.05	B3

Target: M44-modified S NTAA target peptides
Test: encoding assay; P2 F

encoding yield	Binder
0.04	B1
0.01	B2
0.18	B3

Target: M44-modified Y NTAA target peptides (M44-Y-P2-peptide)
Test: encoding assay; P2 F

encoding yield	Binder
0.12	B1
0.02	B2
0.05	B3

Target: M44-modified Q NTAA target peptides
Test: encoding assay; P2 F

encoding yield	Binder
0.02	B1
0.01	B2
0.03	B3

Target: M44-modified H NTAA target peptides
Test: encoding assay; P2 F

encoding yield	Binder
0.04	B1
0.02	B2
0.04	B3

Target: M44-modified M NTAA target peptides
Test: encoding assay; P2 F

encoding yield	Binder
0.1	B1
0.05	B2
0.09	B3

Target: M44-modified P NTAA target peptides
Test: encoding assay; P2 F

encoding yield	Binder
0.02	B1
0.01	B2
0.02	B3

Target: M44-modified E NTAA target peptides
Test: encoding assay; P2 F

encoding yield	Binder
0.03	B1
0.01	B2
0.04	B3

Target: M44-modified A NTAA target peptides (M44-A-P2-peptide)
Test: encoding assay; P2 F

encoding yield	Binder
0.05	B1
0.01	B2
0.31	B3

Target: M44-modified I NTAA target peptides (M44-I-P2-peptide)
Test: encoding assay; P2 F

encoding yield	Binder
0.08	B1
0.07	B2
0.07	B3

Target: M44-modified W NTAA target peptides
Test: encoding assay; P2 F

encoding yield	Binder
0.09	B1
0.02	B2
0.03	B3

Target: M44-modified V NTAA target peptides
Test: encoding assay; P2 F

encoding yield	Binder
0.03	B1
0.01	B2
0.13	B3

Target: M44-modified D NTAA target peptides
Test: encoding assay; P2 F

encoding yield	Binder
0.03	B1
0.01	B2
0.03	B3

Target: M44-modified N NTAA target peptides
Test: encoding assay; P2 F

encoding yield	Binder
0.05	B1
0.01	B2
0.03	B3

Target: M44-modified G NTAA target peptides (M44-G-P2-peptide)
Test: encoding assay; P2 F

encoding yield	Binder
0.04	B1
0.02	B2
0.1	B3

Target: M44-modified F NTAA target peptides (M44-F-P2-peptide)
Test: encoding assay; P2 F

encoding yield	Binder
0.09	B1
0.01	B2
0.03	B3

Target: M44-modified T NTAA target peptides
Test: encoding assay; P2 M

encoding yield	Binder
0.05	B1
0.02	B2
0.21	B3

Target: M44-modified L NTAA target peptides (M44-L-P2-peptide)
Test: encoding assay; P2 M

encoding yield	Binder
0.19	B1
0.02	B2
0	B3

Target: M44-modified Y NTAA target peptides (M44-Y-P2-peptide)
Test: encoding assay; P2 M

encoding yield	Binder
0.03	B1
0.01	B2
0.03	B3

Target: M44-modified M NTAA target peptides
Test: encoding assay; P2 M

encoding yield	Binder
0.02	B1
0	B2
0.02	B3

Target: M44-modified P NTAA target peptides
Test: encoding assay; P2 M

encoding yield	Binder
0.02	B1
0.01	B2
0.03	B3

Target: M44-modified E NTAA target peptides
Test: encoding assay; P2 M

encoding yield	Binder
0.03	B1
0.01	B2
0.03	B3

Target: M44-modified I NTAA target peptides (M44-I-P2-peptide)
Test: encoding assay; P2 M

encoding yield	Binder
0.17	B1
0.1	B2
0.15	B3

Target: M44-modified V NTAA target peptides
Test: encoding assay; P2 M

encoding yield	Binder
0.03	B1
0.01	B2
0.12	B3

Target: M44-modified N NTAA target peptides
Test: encoding assay; P2 M

encoding yield	Binder
0.02	B1
0.01	B2
0.02	B3

Target: M44-modified F NTAA target peptides (M44-F-P2-peptide)
Test: encoding assay; P2 M

encoding yield	Binder
0.07	B1
0.02	B2
0.04	B3
